Laboratory results taken from ChEMBL document CHEMBL4229465, “SIRT4 is the last puzzle of mitochondrial sirtuins” (Bioorg Med Chem, 2018).
Where a SMILES comes first, the peptide text is derived from it. The star is where a group is joined. ξ: configuration not given here. Biotin = O=C1N[C@H]2[C@H](CS[C@H]2CCCCC(=O)*)N1; Lipoyl(6ξ) = O=C(CCCCC1CCSS1)*; X2 = CC(O)(CC(=O)O)CC(=O)*; X1 = CC(C)(CC(=O)*)C(=O)O

Tests used:
[1] = target: T1, NAD-dependent protein lipoamidase sirtuin-4, mitochondrial (Homo sapiens) (UniProt Q9Y6E7); assay: Ratio of Kcat to Km at recombinant SIRT4 (unknown origin)
T1 sequence (whole entry): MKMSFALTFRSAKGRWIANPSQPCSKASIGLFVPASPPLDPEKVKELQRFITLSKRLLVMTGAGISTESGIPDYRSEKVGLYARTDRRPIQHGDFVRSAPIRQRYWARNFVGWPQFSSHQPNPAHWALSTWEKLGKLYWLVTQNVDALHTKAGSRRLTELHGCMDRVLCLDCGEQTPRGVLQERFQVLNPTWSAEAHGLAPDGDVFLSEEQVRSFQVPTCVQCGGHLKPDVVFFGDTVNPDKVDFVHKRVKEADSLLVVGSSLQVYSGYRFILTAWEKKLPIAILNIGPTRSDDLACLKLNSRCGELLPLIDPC

[2] = target: T1, NAD-dependent protein lipoamidase sirtuin-4, mitochondrial (Homo sapiens); assay: Ratio of Kcat to Km at human N-terminal His6-tagged SIRT4 (25 to 314 residues) expressed in Escherichia coli codon plus (DE3)
[3] = target: T2, NAD-dependent protein deacetylase sirtuin-2 (Homo sapiens) (UniProt Q8IXJ6); assay: Ratio of Kcat to Km at human SIRT2 (36 to 356 residues) expressed in Escherichia coli rosetta cells
T2 sequence (whole entry): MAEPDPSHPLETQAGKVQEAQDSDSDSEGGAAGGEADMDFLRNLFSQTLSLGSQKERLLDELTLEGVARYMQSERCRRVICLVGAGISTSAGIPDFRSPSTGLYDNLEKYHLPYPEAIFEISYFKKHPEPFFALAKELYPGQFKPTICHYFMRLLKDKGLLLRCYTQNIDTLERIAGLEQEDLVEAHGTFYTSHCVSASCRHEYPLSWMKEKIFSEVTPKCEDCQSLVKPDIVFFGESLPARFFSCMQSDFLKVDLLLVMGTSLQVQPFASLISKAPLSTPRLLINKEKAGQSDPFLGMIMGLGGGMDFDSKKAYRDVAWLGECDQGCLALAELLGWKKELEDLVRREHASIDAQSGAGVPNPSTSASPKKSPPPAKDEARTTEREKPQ

[4] = compound: C[C@H](NC(=O)[C@@H](NC(=O)[C@H](CCC(N)=O)NC(=O)[C@@H](N)CCCCN)[C@@H](C)O)C(=O)N[C@@H](CCCNC(=N)N)C(=O)N[C@@H](CCCCNC(=O)CCCC[C@@H]1SC[C@@H]2NC(=O)N[C@@H]21)C(=O)N[C@@H](CO)C(=O)N[C@H](C(=O)NCC(=O)NCC(=O)O)[C@@H](C)O; assay: (§1) Activity at recombinant SIRT4 (unknown origin) in presence of NAD by LC-MS analysis; settings: Homo sapiens
[5] = compound: CC[C@H](C)[C@H](NC(=O)[C@@H](NC(=O)[C@H](C)NC(=O)[C@H](CCCCNC(C)=O)NC(=O)[C@H](CC(=O)O)NC(=O)[C@@H](NC(=O)[C@H](CCC(=O)O)NC(=O)[C@@H](NC(=O)[C@@H](N)CCC(=O)O)[C@@H](C)CC)[C@@H](C)O)[C@@H](C)O)C(=O)NCC(=O)O; assay: as §1; settings: Homo sapiens
[6] = compound: CC[C@H](C)[C@H](NC(=O)[C@@H](NC(=O)[C@H](C)NC(=O)[C@H](CCCCNC(=O)CCCCC1CCSS1)NC(=O)[C@H](CC(=O)O)NC(=O)[C@@H](NC(=O)[C@H](CCC(=O)O)NC(=O)[C@@H](NC(=O)[C@@H](N)CCC(=O)O)[C@@H](C)CC)[C@@H](C)O)[C@@H](C)O)C(=O)NCC(=O)O; assay: as §1; settings: Homo sapiens
[7] = compound: C[C@H](NC(=O)[C@@H](NC(=O)[C@H](CCC(N)=O)NC(=O)[C@@H](N)CCCCN)[C@@H](C)O)C(=O)N[C@@H](CCCNC(=N)N)C(=O)N[C@@H](CCCCNC(=O)CCCCC1CCSS1)C(=O)N[C@@H](CO)C(=O)N[C@H](C(=O)NCC(=O)NCC(=O)O)[C@@H](C)O; assay: as §1; settings: Homo sapiens
[8] = compound: CC[C@H](C)[C@H](NC(=O)[C@H](CC(N)=O)NC(=O)[C@H](CCCCNC(C)=O)NC(=O)[C@H](CO)NC(=O)CNC(=O)[C@H](CC(C)C)NC(=O)[C@H](Cc1ccc(O)cc1)NC(=O)[C@@H](N)CO)C(=O)N[C@@H](CCCCN)C(=O)N[C@@H](C)C(=O)N[C@@H](CO)C(=O)N[C@@H](CCC(=O)O)C(=O)O; assay: as §1; settings: Homo sapiens
[9] = compound: CC(=O)NCCCC[C@H](NC(=O)[C@H](CCCNC(=N)N)NC(=O)[C@H](C)NC(=O)[C@@H](NC(=O)[C@H](CCC(N)=O)NC(=O)[C@@H](N)CCCCN)[C@@H](C)O)C(=O)N[C@@H](CO)C(=O)N[C@H](C(=O)NCC(=O)NCC(=O)O)[C@@H](C)O; assay: as §1; settings: Homo sapiens
[10] = substrate: CC(=O)NCCCC[C@H](NC(=O)[C@H](CC(C)C)NC(=O)[C@@H](NC(=O)CN)C(C)C)C(=O)N[C@@H](CCC(=O)O)C(=O)N[C@@H](Cc1ccc(O)cc1)C(=O)NCC(=O)N[C@H](C(=O)O)C(C)C; assay: (§2) Activity at human N-terminal His6-tagged SIRT4 (25 to 314 residues) expressed in Escherichia coli codon plus (DE3)
[11] = substrate: CC(C)C[C@H](NC(=O)[C@@H](NC(=O)CN)C(C)C)C(=O)N[C@@H](CCCCNC(=O)CCCCC1CCSS1)C(=O)N[C@@H](CCC(=O)O)C(=O)N[C@@H](Cc1ccc(O)cc1)C(=O)NCC(=O)N[C@H](C(=O)O)C(C)C; assay: as §2
[12] = substrate: CC(C)C[C@H](NC(=O)[C@@H](NC(=O)CN)C(C)C)C(=O)N[C@@H](CCCCNC(=O)CC(C)(O)CC(=O)O)C(=O)N[C@@H](CCC(=O)O)C(=O)N[C@@H](Cc1ccc(O)cc1)C(=O)NCC(=O)N[C@H](C(=O)O)C(C)C; assay: as §2
[13] = substrate: CC(C)C[C@H](NC(=O)[C@@H](NC(=O)CN)C(C)C)C(=O)N[C@@H](CCCCNC(=O)CC(C)(C)C(=O)O)C(=O)N[C@@H](CCC(=O)O)C(=O)N[C@@H](Cc1ccc(O)cc1)C(=O)NCC(=O)N[C@H](C(=O)O)C(C)C; assay: as §2

With `CC[C@H](C)[C@H](NC(=O)[C@@H](NC(=O)[C@H](C)NC(=O)[C@H](CCCCNC(=O)CCCCC1CCSS1)NC(=O)[C@H](CC(=O)O)NC(=O)[C@@H](NC(=O)[C@H](CCC(=O)O)NC(=O)[C@@H](NC(=O)[C@@H](N)CCC(=O)O)[C@@H](C)CC)[C@@H](C)O)[C@@H](C)O)C(=O)NCC(=O)O` (stereo partly drawn) (H-EIETDK(Lipoyl(6ξ))ATIG-OH) the Ratio [1] was 7.65 s⁻¹ M⁻¹.

Molecule H-KQTARK(Ac)STGG-OH has a Ratio [1] of 0.083 s⁻¹ M⁻¹.

`C[C@H](NC(=O)[C@@H](NC(=O)[C@H](CCC(N)=O)NC(=O)[C@@H](N)CCCCN)[C@@H](C)O)C(=O)N[C@@H](CCCNC(=N)N)C(=O)N[C@@H](CCCCNC(=O)CCCC[C@@H]1SC[C@@H]2NC(=O)N[C@@H]21)C(=O)N[C@@H](CO)C(=O)N[C@H](C(=O)NCC(=O)NCC(=O)O)[C@@H](C)O` (H-KQTARK(Biotin)STGG-OH) gave a Ratio [1] of 0.74 s⁻¹ M⁻¹.

Molecule `CC(C)C[C@H](NC(=O)[C@@H](NC(=O)CN)C(C)C)C(=O)N[C@@H](CCCCNC(=O)CCCCC1CCSS1)C(=O)N[C@@H](CCC(=O)O)C(=O)N[C@@H](Cc1ccc(O)cc1)C(=O)NCC(=O)N[C@H](C(=O)O)C(C)C` (stereo partly drawn) (H-GVLK(Lipoyl(6ξ))EYGV-OH) has a Ratio [2] of 170 s⁻¹ M⁻¹.

H-SYLGSK(Ac)NIKASE-OH showed a Ratio [1] of 0.0064 s⁻¹ M⁻¹.

For `CC(C)C[C@H](NC(=O)[C@@H](NC(=O)CN)C(C)C)C(=O)N[C@@H](CCCCNC(=O)CC(C)(C)C(=O)O)C(=O)N[C@@H](CCC(=O)O)C(=O)N[C@@H](Cc1ccc(O)cc1)C(=O)NCC(=O)N[C@H](C(=O)O)C(C)C` (H-GVLK(X1)EYGV-OH), the Ratio [2] was 412 s⁻¹ M⁻¹.

In the case of H-KQLATK(Ac)AARKS-OH, the Ratio [3] is reported as 3130 s⁻¹ M⁻¹.

`CC(C)C[C@H](NC(=O)[C@@H](NC(=O)CN)C(C)C)C(=O)N[C@@H](CCCCNC(=O)CC(C)(O)CC(=O)O)C(=O)N[C@@H](CCC(=O)O)C(=O)N[C@@H](Cc1ccc(O)cc1)C(=O)NCC(=O)N[C@H](C(=O)O)C(C)C` (stereo partly drawn) (H-GVLK(X2)EYGV-OH) was tested, and the Ratio [2] was 546 s⁻¹ M⁻¹.

In the case of H-GVLK(Ac)EYGV-OH, the Ratio [2] is reported as 3.7 s⁻¹ M⁻¹.

For H-EIETDK(Ac)ATIG-OH, the Ratio [1] was 0.2 s⁻¹ M⁻¹.

`C[C@H](NC(=O)[C@@H](NC(=O)[C@H](CCC(N)=O)NC(=O)[C@@H](N)CCCCN)[C@@H](C)O)C(=O)N[C@@H](CCCNC(=N)N)C(=O)N[C@@H](CCCCNC(=O)CCCCC1CCSS1)C(=O)N[C@@H](CO)C(=O)N[C@H](C(=O)NCC(=O)NCC(=O)O)[C@@H](C)O` (stereo partly drawn) (H-KQTARK(Lipoyl(6ξ))STGG-OH) showed a Ratio [1] of 2.3 s⁻¹ M⁻¹.

B1: NAD-dependent protein lipoamidase sirtuin-4, mitochondrial (Homo sapiens), Q9Y6E7 (protein)
chain: T1 sequence (whole entry)
In the case of B1, the Km [4] is reported as 719 µM, the kcat [4] is reported as 0.0005 s⁻¹ and the Km [5] is reported as > 2500 µM. For the same molecule, the Km [6] was 239 µM, the kcat [6] was 0.0018 s⁻¹ and the Km [7] was 814 µM. The kcat [7] was 0.0019 s⁻¹, the Km [8] was > 2500 µM and the Km [9] was > 2500 µM. It also gave a Km [10] of 2340 µM, a kcat [10] of 0.0087 s⁻¹ and a Km [11] of 10.1 µM. For the same molecule, the kcat [11] was 0.0017 s⁻¹, the Km [12] was 9.7 µM and the kcat [12] was 0.0053 s⁻¹. For the same molecule, the Km [13] was 17.7 µM and the kcat [13] was 0.0073 s⁻¹.
